The target in test [1] is T1, CPP32, bacterially expressed recombinant active enzyme (human, UniProt P42574 29-277, limits assumed).
T1 construct: Bacterially expressed (as a GST fusion, as described for Mch3) and used as bacterial lysate; also called recombinant CPP32
T1 sequence (looked up): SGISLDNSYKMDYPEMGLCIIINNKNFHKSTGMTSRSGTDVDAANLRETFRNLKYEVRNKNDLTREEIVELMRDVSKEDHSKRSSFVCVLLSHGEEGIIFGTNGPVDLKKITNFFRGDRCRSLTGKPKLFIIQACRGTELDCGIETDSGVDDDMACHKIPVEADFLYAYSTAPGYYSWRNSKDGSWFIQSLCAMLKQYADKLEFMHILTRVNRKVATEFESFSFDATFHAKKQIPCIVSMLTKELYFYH
The test is described as follows: inhibition of hydrolysis of 10 µM DEVD-AMC, continuous fluorometric assay, bacterial lysate, 30 min preincubation.

In test [2] the target is T2, Mch3α, bacterially expressed recombinant active enzyme (human, UniProt P55210 24-303, limits assumed).
T2 construct: Expressed in E. coli as a GST fusion (Mch3α1 or Mch3α2); also called recombinant Mch3α
T2 sequence: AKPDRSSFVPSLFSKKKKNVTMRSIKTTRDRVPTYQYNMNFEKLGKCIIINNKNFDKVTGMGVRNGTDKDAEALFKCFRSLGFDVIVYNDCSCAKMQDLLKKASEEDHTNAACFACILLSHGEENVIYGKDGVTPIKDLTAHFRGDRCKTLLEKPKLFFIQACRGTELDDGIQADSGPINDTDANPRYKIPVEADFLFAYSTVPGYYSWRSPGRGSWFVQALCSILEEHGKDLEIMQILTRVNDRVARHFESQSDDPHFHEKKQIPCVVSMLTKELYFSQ
Briefly: inhibition of hydrolysis of 50 µM DEVD-AMC, continuous fluorometric assay, bacterial lysate, 30 min preincubation.

No end group written: not given here.

Usually Ki stands for a measure of affinity in units of concentration, obtained from inhibition or displacement. On to DEVD-aldehyde (also called DEVD-CHO) [tetrapeptide DEVD aldehyde], for which the inhibition constant (Ki) turned out to be 0.59 nM in test [1] and 1.8 nM in test [2].

The record behind these values is US20030119169A1 (IDUN PHARMACEUTICALS, published 2003).
